B1: GRB10-interacting GYF protein 1 (Homo sapiens), O75420 (parent)
chain: MAAETLNFGPEWLRALSGGGSVASPPPSPAMPKYKLADYRYGREEMLALYVKENKVPEELQDKEFAAVLQDEPLQPLALEPLTEEEQRNFSLSVNSVAVLRLMGKGAGPPLAGTSRGRGSTRSRGRGRGDSCFYQRSIEEGDGAFGRSPREIQRSQSWDDRGERRFEKSARRDGARCGFEEGGAGPRKEHARSDSENWRSLREEQEEEEEGSWRLGAGPRRDGDRWRSASPDGGPRSAGWREHGERRRKFEFDLRGDRGGCGEEEGRGGGGSSHLRRCRAPEGFEEDKDGLPEWCLDDEDEEMGTFDASGAFLPLKKGPKEPIPEEQELDFQGLEEEEEPSEGLEEEGPEAGGKELTPLPPQEEKSSSPSPLPTLGPLWGTNGDGDETAEKEPPAAEDDIRGIQLSPGVGSSAGPPGDLEDDEGLKHLQQEAEKLVASLQDSSLEEEQFTAAMQTQGLRHSAAATALPLSHGAARKWFYKDPQGEIQGPFTTQEMAEWFQAGYFSMSLLVKRGCDEGFQPLGEVIKMWGRVPFAPGPSPPPLLGNMDQERLKKQQELAAAALYQQLQHQQFLQLVSSRQLPQCALREKAALGDLTPPPPPPPQQQQQQLTAFLQQLQALKPPRGGDQNLLPTMSRSLSVPDSGRLWDVHTSASSQSGGEASLWDIPINSSTQGPILEQLQLQHKFQERREVELRAKREEEERKRREEKRRQQQQEEQKRRQEEEELFRRKHVRQQELLLKLLQQQQAVPVPPAPSSPPPLWAGLAKQGLSMKTLLELQLEGERQLHKQPPPREPARAQAPNHRVQLGGLGTAPLNQWVSEAGPLWGGPDKSGGGSSGLGLWEDTPKSGGSLVRGLGLKNSRSSPSLSDSYSHLSGRPIRKKTEEEEKLLKLLQGIPRPQDGFTQWCEQMLHTLSATGSLDVPMAVAILKEVESPYDVHDYIRSCLGDTLEAKEFAKQFLERRAKQKASQQRQQQQEAWLSSASLQTAFQANHSTKLGPGEGSKAKRRALMLHSDPSILGYSLHGSSGEIESVDDY
B2: GRB10-interacting GYF protein 2 (Homo sapiens), Q6Y7W6 (parent)
chain: MAAETQTLNFGPEWLRALSSGGSITSPPLSPALPKYKLADYRYGREEMLALFLKDNKIPSDLLDKEFLPILQEEPLPPLALVPFTEEEQRNFSMSVNSAAVLRLTGRGGGGTVVGAPRGRSSSRGRGRGRGECGFYQRSFDEVEGVFGRGGGREMHRSQSWEERGDRRFEKPGRKDVGRPNFEEGGPTSVGRKHEFIRSESENWRIFREEQNGEDEDGGWRLAGSRRDGERWRPHSPDGPRSAGWREHMERRRRFEFDFRDRDDERGYRRVRSGSGSIDDDRDSLPEWCLEDAEEEMGTFDSSGAFLSLKKVQKEPIPEEQEMDFRPVDEGEECSDSEGSHNEEAKEPDKTNKKEGEKTDRVGVEASEETPQTSSSSARPGTPSDHQSQEASQFERKDEPKTEQTEKAEEETRMENSLPAKVPSRGDEMVADVQQPLSQIPSDTASPLLILPPPVPNPSPTLRPVETPVVGAPGMGSVSTEPDDEEGLKHLEQQAEKMVAYLQDSALDDERLASKLQEHRAKGVSIPLMHEAMQKWYYKDPQGEIQGPFNNQEMAEWFQAGYFTMSLLVKRACDESFQPLGDIMKMWGRVPFSPGPAPPPHMGELDQERLTRQQELTALYQMQHLQYQQFLIQQQYAQVLAQQQKAALSSQQQQQLALLLQQFQTLKMRISDQNIIPSVTRSVSVPDTGSIWELQPTASQPTVWEGGSVWDLPLDTTTPGPALEQLQQLEKAKAAKLEQERREAEMRAKREEEERKRQEELRRQQEEILRRQQEEERKRREEEELARRKQEEALRRQREQEIALRRQREEEERQQQEEALRRLEERRREEEERRKQEELLRKQEEEAAKWAREEEEAQRRLEENRLRMEEEAARLRHEEEERKRKELEVQRQKELMRQRQQQQEALRRLQQQQQQQQLAQMKLPSSSTWGQQSNTTACQSQATLSLAEIQKLEEERERQLREEQRRQQRELMKALQQQQQQQQQKLSGWGNVSKPSGTTKSLLEIQQEEARQMQKQQQQQQQHQQPNRARNNTHSNLHTSIGNSVWGSINTGPPNQWASDLVSSIWSNADTKNSNMGFWDDAVKEVGPRNSTNKNKNNASLSKSVGVSNRQNKKVEEEEKLLKLFQGVNKAQDGFTQWCEQMLHALNTANNLDVPTFVSFLKEVESPYEVHDYIRAYLGDTSEAKEFAKQFLERRAKQKANQQRQQQQLPQQQQQQPPQQPPQQPQQQDSVWGMNHSTLHSVFQTNQSNNQQSNFEAVQSGKKKKKQKMVRADPSLLGFSVNASSERLNMGEIETLDDY
B3: Eukaryotic translation initiation factor 4E type 2 (Homo sapiens), O60573-1 (parent)
chain: MNNKFDALKDDDSGDHDQNEENSTQKDGEKEKTERDKNQSSSKRKAVVPGPAEHPLQYNYTFWYSRRTPGRPTSSQSYEQNIKQIGTFASVEQFWRFYSHMVRPGDLTGHSDFHLFKEGIKPMWEDDANKNGGKWIIRLRKGLASRCWENLILAMLGEQFMVGEEICGAVVSVRFQEDIISIWNKTASDQATTARIRDTLRRVLNLPPNTIMEYKTHTDSIKMPGRLGPQRLLFQNLWKPRLNVP
partner: B2 chain

Variants of: B1
Settings: with EIF4E2, O60573-1

| Variant | effect of a mutation on the interaction |
| --- | --- |
| E44F;E45A;Q87A | with no effect |

Variants of: B1
Settings: with EIF4E2, O60573-1
Remark: another data set of the same source

| Variant | effect of a mutation on the interaction |
| --- | --- |
| L60D;F65D;V68D;P76D;L77A | disrupting interaction strength |
| E86A;N95F | with no effect |

Variants of: B2
Settings: with EIF4E2, O60573-1

| Variant | effect of a mutation on the interaction |
| --- | --- |
| Y41A;Y43A;M48A;L49A | disrupting interaction strength |

Variants of: B2
Settings: with EIF4E2, O60573-1
Remark: another data set of the same source

| Variant | effect of a mutation on the interaction |
| --- | --- |
| E46A;E47F;Q89A | with no effect |

Variants of: B2
Settings: with EIF4E2, O60573-1
Remark: another data set of the same source

| Variant | effect of a mutation on the interaction |
| --- | --- |
| E46A;E47F;Q89A | with no effect |

Variants of: B3
Settings: with GIGYF2, Q6Y7W6-1

| Variant | effect of a mutation on the interaction |
| --- | --- |
| MNNKFDALKDDDSGDHDQNEENSTQKDGEKEKTERDKNQSSSKRKAVVPGPAEHPLQYNYTFWYSRRTPGRPTSSQSYEQNIKQAGTFASVEQFWRFYSHAVRPGDLTGHSDFHLFKEGIKPMWEDDANKNGGKWIIRLRKGLASRCWENLILAMLGEQFMVGEEICGAVVSVRFQEDIISIWNKTASDQATTARIRDTLRRVLNLPPNTIMEYKTHTDSIKMPGRLGPQRLLFQNLWKPRLNVP [I85A;M101A] | with no effect |
| MNNKFDALKDDDSGDHDQNEENSTQKDGEKEKTERDKNQSSSKRKAVVPGPAEHPLQYNYTFWYSRRTPGRPTSSQSYEQNIKQIGTFASVEQFARFYSHMVRPGDLTGHSDFHLFKEGIKPMWEDDANKNGGKWIIRLRKGLASRCWENLILAMLGEQFMVGEEICGAVVSVRFQEDIISIWNKTASDQATTARIRDTLRRVLNLPPNTIMEYKTHTDSIKMPGRLGPQRLLFQNLWKPRLNVP [W95A] | with no effect |

Variants of: B3
Settings: with GIGYF2, Q6Y7W6-1
Remark: another data set of the same source

| Variant | effect of a mutation on the interaction |
| --- | --- |
| MNNKFDALKDDDSGDHDQNEENSTQKDGEKEKTERDKNQSSSKRKAVVPGPAEHPLQYNYTFWYSRRTPGRPTSSQSYEQNIKQAGTFASVEQFWRFYSHAVRPGDLTGHSDFHLFKEGIKPMWEDDANKNGGKWIIRLRKGLASRCWENLILAMLGEQFMVGEEICGAVVSVRFQEDIISIWNKTASDQATTARIRDTLRRVLNLPPNTIMEYKTHTDSIKMPGRLGPQRLLFQNLWKPRLNVP [I85A;M101A] | decreasing interaction strength |
| MNNKFDALKDDDSGDHDQNEENSTQKDGEKEKTERDKNQSSSKRKAVVPGPAEHPLQYNYTFWYSRRTPGRPTSSQSYEQNIKQIGTFASVEQFARFYSHMVRPGDLTGHSDFHLFKEGIKPMWEDDANKNGGKWIIRLRKGLASRCWENLILAMLGEQFMVGEEICGAVVSVRFQEDIISIWNKTASDQATTARIRDTLRRVLNLPPNTIMEYKTHTDSIKMPGRLGPQRLLFQNLWKPRLNVP [W95A] | decreasing interaction strength |

Variants of: B3
Settings: with ggyf2_human GIGYF2, Q6Y7W6

| Variant | effect of a mutation on the interaction |
| --- | --- |
| MNNKFDALKDDDSGDHDQNEENSTQKDGEKEKTERDKNQSSSKRKAVVPGPAEHPLQYNYTFWYSRRTPGRPTSSQSYEQNIKQAGTFASVEQFWRFYSHAVRPGDLTGHSDFHLFKEGIKPMWEDDANKNGGKWIIRLRKGLASRCWENLILAMLGEQFMVGEEICGAVVSVRFQEDIISIWNKTASDQATTARIRDTLRRVLNLPPNTIMEYKTHTDSIKMPGRLGPQRLLFQNLWKPRLNVP [I85A;M101A] | decreasing interaction strength |
| MNNKFDALKDDDSGDHDQNEENSTQKDGEKEKTERDKNQSSSKRKAVVPGPAEHPLQYNYTFWYSRRTPGRPTSSQSYEQNIKQIGTFASVEQFWRFYSHMVLPGDLTGHSDFHLFKEGIKPMWEDDANKNGGKWIIRLRKGLASRCWLNLILAMLGEQFMVGEEICGAVVSVRFQEDIISIWNKTASDQATTARIRDTLRRVLNLPPNTIMEYKTHTDSIKMPGRLGPQRLLFQNLWKPRLNVP [R103L;E149L] | disrupting interaction strength |
| MNNKFDALKDDDSGDHDQNEENSTQKDGEKEKTERDKNQSSSKRKAVVPGPAEHPLQYNYTFWYSRRTPGRPTSSQSYEQNIKQIGTFASVEQFARFYSHMVRPGDLTGHSDFHLFKEGIKPMWEDDANKNGGKWIIRLRKGLASRCWENLILAMLGEQFMVGEEICGAVVSVRFQEDIISIWNKTASDQATTARIRDTLRRVLNLPPNTIMEYKTHTDSIKMPGRLGPQRLLFQNLWKPRLNVP [W95A] | disrupting interaction strength |

Variants of: B3
Settings: with GIGYF2, Q6Y7W6-1
Remark: another data set of the same source

| Variant | effect of a mutation on the interaction |
| --- | --- |
| MNNKFDALKDDDSGDHDQNEENSTQKDGEKEKTERDKNQSSSKRKAVVPGPAEHPLQYNYTFWYSRRTPGRPTSSQSYEQNIKQIGTFASVEQFWRFYSHMVRPGDLTGHSDFHLFKEGIKPMWEDDANKNGGKWIIRLRKGLASRCWENLILAMLGESFDVGEEICGAVVSVRFQEDIISIWNKTASDQATTARIRDTLREVLNLPPNTIMEYKTHTDSIKMPGRLGPQRLLFQNLWKPRLNVP [Q159S;M161D;R202E] | with no effect |

Reference: IntAct's records for PubMed 28698298
